Laboratory results as given in publication PMC4634304, “Evidence-Based Structural Model of the Staphylococcal Repressor Protein: Separation of Functions into Different Domains”.

B1: 57mer Stl-binding dsDNA (dsDNA)
DNA 1: GCTCATATTATTCCTCTCCTACCATTTTATCTCTAATTGAGATATTTATATTCAGAT
DNA 2: ATCTGAATATAAATATCTCAATTAGAGATAAAATGGTAGGAGAGGAATAATATGAGC

Legend:
[1] = biological target: Φ11 dUTPase, dUTPase enzyme from the Φ11 Staphylococcal phage (Staphylococcal phage Φ11); assay: inhibition of enzyme activity (steady-state dUTPase kinetics); 20 nM Φ11 dUTPase, 1 mM HEPES-HCl pH 7.5, 5 mM MgCl2, 150 mM KCl, phenol red, 293 K; the two proteins preincubated 5 min; quadratic binding equation fitted; apparent Ki
[2] = biological target: Φ11 dUTPase, dUTPase enzyme from the Φ11 Staphylococcal phage (Staphylococcal phage Φ11)
[3] = biological target: Φ11 dUTPase, dUTPase enzyme from the Φ11 Staphylococcal phage (Staphylococcal phage Φ11); remark: listed apart in the source
[4] = biological target: Stl (SaPIbov1 repressor), wild type (Staphylococcus aureus pathogenicity …, UniProt Q9F0J8); assay: EMSA; shift at 1 uM Stl (monomer); settings: protein: recombinant; tags: N-terminal GST removed by thrombin (pGEX-4T-1); chain copies: 2; label: none (GelRed stain); blunt
Stl-CTD = Stl-CTD (Staphylococcus aureus pathogenicity …, UniProt Q9F0J8 85-267); assay: EMSA; no shift at 2-30 uM Stl-CTD (monomer); settings: protein: recombinant; tags: N-terminal GST removed by thrombin (pGEX-4T-1); label: none (GelRed stain); blunt

Molecule	Ki [1] [nM]	maximum inhibition of Φ11 dUTPase activity at saturating Stl-CTD concentration [2] [%]	maximal inhibition of Φ11 dUTPase activity by Stl-AA [3] [%]	binding result [4]	binding result (Stl-CTD)
Stl-CTD, carboxy-terminal domain of the SaPIbov1 pathogenicity island repressor Stl (domain or fragment)	1.5	40			
Stl-Q40A,N41A double mutant of the SaPIbov1 repressor Stl (natural protein)	1.4		> 90		
B1				binds	no binding
